Reference: paper PMC10223678

Biological target: recombinant EGF (rEGF) protein with SV5 and 6xHis tags (human)
Experiment: ELISA; titration ELISA: plates coated with rEGF at 5 µg/mL (BSA coating for negative controls, at the maximum tested nanobody concentration), blocked with 3% skimmed milk, biotinylated nanobodies serially diluted 1 h at RT, detected with streptavidin-HRP; KD estimated by the fitting function of ref. 37; triplicates

Row | Kd | Binder
1 | 370 nM | recombinant anti-EGF nanobody D6-4, biotinylated (VHH) VHH: QVQLVESGGGSVQAGGSLRLSCTASGTRRYKYNVFDLGWFRQAPGQEREAVAAISTGGGRTYYADSVKGRFTISRDNAKNTVTLQMNNLKPEDTAIYYCAARRTNNANFRYWGQGTQVTVS
2 | 240 nM | recombinant anti-EGF nanobody A8-1, biotinylated (VHH) VHH: QVQLVESGGGSVQAGGSLRLSCTASGNSNYQYPHFDLGWFRQAPGQEREAVAAISSGGGRTYYADSVKGRFTISRDNAKNTVTLQMNNLKPEDTAIYYCAAVGSRTRNYRYWGQGTQVTVS
